Results from publication PMC10786891, “Massively parallel profiling of RNA-targeting CRISPR-Cas13d”.
Substitutions are numbered along the chain they refer to. In names and notes the source's numbering stands.

T1: EsCas13d, nuclease-dead (Eubacterium siraeum, UniProt B0MS50, R295A;H300A;R849A;H854A)
T1 sequence: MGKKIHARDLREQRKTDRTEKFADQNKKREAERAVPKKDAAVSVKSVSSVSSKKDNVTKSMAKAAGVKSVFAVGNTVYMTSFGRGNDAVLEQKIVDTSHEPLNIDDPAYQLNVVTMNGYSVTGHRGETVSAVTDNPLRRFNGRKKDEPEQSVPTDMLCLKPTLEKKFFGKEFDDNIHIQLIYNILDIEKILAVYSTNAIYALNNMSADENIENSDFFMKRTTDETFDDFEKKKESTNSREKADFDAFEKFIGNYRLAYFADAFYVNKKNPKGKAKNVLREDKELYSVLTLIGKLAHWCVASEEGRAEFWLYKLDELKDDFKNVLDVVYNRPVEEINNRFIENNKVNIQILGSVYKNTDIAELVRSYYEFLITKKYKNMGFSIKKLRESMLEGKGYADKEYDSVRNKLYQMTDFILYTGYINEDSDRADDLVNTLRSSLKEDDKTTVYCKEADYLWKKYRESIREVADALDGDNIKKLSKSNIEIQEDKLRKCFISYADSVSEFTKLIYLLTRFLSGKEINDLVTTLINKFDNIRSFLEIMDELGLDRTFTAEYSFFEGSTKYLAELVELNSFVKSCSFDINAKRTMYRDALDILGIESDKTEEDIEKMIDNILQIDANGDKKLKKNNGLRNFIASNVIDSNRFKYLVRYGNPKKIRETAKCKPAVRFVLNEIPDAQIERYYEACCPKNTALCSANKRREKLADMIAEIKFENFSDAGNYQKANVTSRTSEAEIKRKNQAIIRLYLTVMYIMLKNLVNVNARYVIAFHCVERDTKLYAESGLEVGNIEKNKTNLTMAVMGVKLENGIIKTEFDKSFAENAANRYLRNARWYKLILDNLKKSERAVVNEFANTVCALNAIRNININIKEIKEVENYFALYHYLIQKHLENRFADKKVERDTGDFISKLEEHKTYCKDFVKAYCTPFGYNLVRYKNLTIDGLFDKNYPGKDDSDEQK

B1: target 1 insA 3' of 8,insC 3' of 8 (mixed)
RNA 1: CACCCGUGCAAAAAUGCAGGGGUCUAAAACUGAGCGGAUAACCUCUCUAUGG
RNA 2: GGGAAUGGAUCCACAUCUACGAAUUCGUACCAUAGAGAGGUUAUACCCGCUCACCGAGAUCGGAAGAGCACACGU
B2: target 1 G17A,U19C (mixed)
RNA 1: B1 RNA 1
RNA 2: GGGAAUGGAUCCACAUCUACGAAUUCGUACCACAAAGAGGUUAUCCGCUCACCGAGAUCGGAAGAGCACACGU
B3: target 1 G5A,A14G (mixed)
RNA 1: B1 RNA 1
RNA 2: B2 RNA 2 with C33U, A35G, A38G, G47A
B4: target 1 insG 3' of 11,insC 3' of 3 (mixed)
RNA 1: B1 RNA 1
RNA 2: B1 RNA 2 with U42G, A43U, U44A, A45U, C48G, G49C, C50U, U51C
B5: target 1 C4A,A16C (mixed)
RNA 1: B1 RNA 1
RNA 2: B2 RNA 2 with C33U, A35G, A36C, C48A
B6: target 1 insG 3' of 16,insC 3' of 8 (mixed)
RNA 1: B1 RNA 1
RNA 2: B1 RNA 2 with A38G, G39A, U41G, A43U, U44A, A45U
B7: target 1 insC 3' of 22,insA 3' of 8 (mixed)
RNA 1: B1 RNA 1
RNA 2: GGGAAUGGAUCCACAUCUACGAAUUCGUACCCAUAGAGAGGUUAUACCGCUCACCGAGAUCGGAAGAGCACACGU
B8: target 1 insU 3' of 12,insG 3' of 9 (mixed)
RNA 1: B1 RNA 1
RNA 2: B1 RNA 2 with A43U, U44A, A45G, C46U
B9: target 1 U11G,G12A (mixed)
RNA 1: B1 RNA 1
RNA 2: B2 RNA 2 with C33U, A35G, G40A, U41G
B10: target 1 C6G,C7A (mixed)
RNA 1: B1 RNA 1
RNA 2: B2 RNA 2 with C33U, A35G, C45A, C46G
B11: target 1 A20U (mixed)
RNA 1: B1 RNA 1
RNA 2: B2 RNA 2 with A32U, C33U, A35G
B12: target 1 insU 3' of 22,insC 3' of 8 (mixed)
RNA 1: B1 RNA 1
RNA 2: B7 RNA 2 with C31U, A46C
B13: target 1 insC 3' of 5,insU 3' of 5 (mixed)
RNA 1: B1 RNA 1
RNA 2: B1 RNA 2 with A45C, C47G, G49U
B14: target 1 C7A,G15U (mixed)
RNA 1: B1 RNA 1
RNA 2: B2 RNA 2 with C33U, A35G, G37U, C45A
B15: target 1 insU 3' of 14,insC 3' of 1 (mixed)
RNA 1: B1 RNA 1
RNA 2: GGGAAUGGAUCCACAUCUACGAAUUCGUACCAUAGAGAUGGUUAUCCGCUCACCCGAGAUCGGAAGAGCACACGU
B16: target 1 insC 3' of 17 (mixed)
RNA 1: B1 RNA 1
RNA 2: GGGAAUGGAUCCACAUCUACGAAUUCGUACCAUAGCAGAGGUUAUCCGCUCACCGAGAUCGGAAGAGCACACGU
B17: target 1 G5C,U8A (mixed)
RNA 1: B1 RNA 1
RNA 2: B2 RNA 2 with C33U, A35G, U44A, G47C
B18: target 1 A1G,A20U (mixed)
RNA 1: B1 RNA 1
RNA 2: B2 RNA 2 with A32U, C33U, A35G, A51G
B19: target 1 insG 3' of 19,insG 3' of 4 (mixed)
RNA 1: B1 RNA 1
RNA 2: B7 RNA 2 with C32A, A33U, U34G, A46C, C48G, G49C, C50G
B20: target 1 G5A,A14C (mixed)
RNA 1: B1 RNA 1
RNA 2: B2 RNA 2 with C33U, A35G, A38C, G47A
B21: target 1 insA 3' of 15,insG 3' of 10 (mixed)
RNA 1: B1 RNA 1
RNA 2: B1 RNA 2 with G39A, U41G, A43U, U44G, C46U
B22: target 1 A1C,C7A (mixed)
RNA 1: B1 RNA 1
RNA 2: B2 RNA 2 with C33U, A35G, C45A, A51C
B23: target 1 insA 3' of 13,insG 3' of 9 (mixed)
RNA 1: B1 RNA 1
RNA 2: B1 RNA 2 with G40A, U41G, A43U, U44A, A45G, C46U
B24: target 1 A1U,C7A (mixed)
RNA 1: B1 RNA 1
RNA 2: B2 RNA 2 with C33U, A35G, C45A, A51U
B25: target 1 insU 3' of 14,insG 3' of 1 (mixed)
RNA 1: B1 RNA 1
RNA 2: B15 RNA 2 with C53G
B26: target 1 insU 3' of 14,insA 3' of 2 (mixed)
RNA 1: B1 RNA 1
RNA 2: B15 RNA 2 with C53A
B27: target 1 insU 3' of 22,insU 3' of 21 (mixed)
RNA 1: B1 RNA 1
RNA 2: B1 RNA 2 with C31U, A32C, G35U, G40A, U41G, U42G, A43U, C46U
B28: target 1 C7A (mixed)
RNA 1: B1 RNA 1
RNA 2: B2 RNA 2 with C33U, A35G, C45A
B29: target 1 insA 3' of 8,insA 3' of 7 (mixed)
RNA 1: B1 RNA 1
RNA 2: B1 RNA 2 with C47A

Target: T1, EsCas13d, nuclease-dead
Assay: crRNA (strand 1, pre-loaded); Mg2+; 40 mM Tris-HCl pH 7.5, 150 mM NaCl, 6 mM MgCl2, 1 mM DTT, 0.1% Tween-20, 0.2 mg/ml BSA; 25 C; 10 min per concentration, then washed
Conditions: tags: His6-TwinStrep-SUMO cleaved; N-terminal SNAP kept (SNAP-Surface 488); label: 3' end held by stalled T7 RNA polymerase

Row | Binder | Kd
1 | B1 | 13.2 ± 0.6 nM
2 | B2 | 46 ± 6 nM
3 | B3 | 42 ± 4 nM
4 | B4 | 51 ± 8 nM
5 | B5 | 49 ± 11 nM
6 | B6 | 24.3 ± 2 nM
7 | B7 | 31.4 ± 2.8 nM
8 | B8 | 13.3 ± 0.8 nM
9 | B9 | 4.27 ± 0.21 nM
10 | B10 | 8.9 ± 0.4 nM
11 | B11 | 50 ± 5 nM
12 | B12 | ~100 nM
13 | B13 | 9.3 ± 0.5 nM
14 | B14 | 19.6 ± 2.1 nM
15 | B15 | 42 ± 7 nM
16 | B16 | 50 ± 11 nM
17 | B17 | 38 ± 5 nM
18 | B18 | 37.8 ± 2.3 nM
19 | B19 | 34.6 ± 1.9 nM
20 | B20 | 81 ± 34 nM
21 | B21 | 13.6 ± 1.8 nM
22 | B22 | 9.8 ± 0.6 nM
23 | B23 | 6.9 ± 0.5 nM
24 | B24 | 9.4 ± 1 nM
25 | B25 | 45 ± 4 nM
26 | B26 | 43 ± 6 nM
27 | B27 | 85 ± 28 nM
28 | B28 | 7.8 ± 0.4 nM
29 | B29 | 11.3 ± 0.5 nM
